This is an account of results in US20070218051A1, “Epitope peptides immunogenic against Streptococcus pneumoniae” (Sarvamangala J N Devi, priority 1998, published 2007).

In test [1] the test system is virulent capsular type 3 Streptococcus pneumoniae strain, WU2. Briefly: Protection experiment, Example 4: active immunization of xid mice, challenge with WU2. It is filed as in vivo. Particulars: CBA/CaHN/J xid mice; about 22 μg s.c. in CFA, 100 μg IP 14 days later; IV challenge 60 CFU WU2; observed 21 days. The procedure: CBA/CaHN/J Mice. X-linked immune deficiency (xid) CBA/N mice as described by Wicker et al., Curr. Top. Microbiol, Immunol. 124:86-[0] were used to study the protection afforded by the 37-kDa protein.
Twenty CBA/CaHN/J mice carrying the xid mutation […] immunodeficiency) were used in this protection study. They were tested for protection against challenge with a virulent capsulan type 3 Streptococcus pneumoniae strain, WU2. Mice were anesthetized with Ketamine/Rompum and bled infraorbitally to obtain pre-immunization sera. 37-kDa protein (pneumococcal surface adhesin A) was emulsified in complete Freund's adjuvant (CFA) to a protein concentration of 54 μg per ml. Ten mice were injected subcutaneously into 2 axillary and 2 inguinal sites at 0.1 ml per site, delivering approximately 22 μg protein/mouse. Ten control mice were treated identically with CFA and buffer substituting for protein. Fourteen days later, the ten test mice were injected intraperitoneally (IP) with 100 μg of the 37-kDa protein; controls were injected IP with buffer. Eight days following the IP immunizations, all mice were bled infraorbitally to obtain post-immunization sera, and challenged intravenously (IV) with 60 CFU of a log phase culture of S. pneumoniae strain WU2. […]

For test [2], the system named is S. pneumoniae type 3 strain, WU2. The test is described as follows: Protection experiment, Example 5: active immunization of xid mice, challenge with WU2. The format is in vivo, Streptococcus pneumoniae. Particulars: CBA/CaHN/J xid mice immunized with 21 μg s.c. in CFA plus 100 μg IP boost; IV challenge 140 CFU WU2. The procedure:
Twenty CBA/CaHN/J mice carrying the xid mutation were injected according to the following protocol:
1. All mice were bled prior to immunization to establish baseline immunity. Ten test mice were immunized subcutaneously in four sites with a total of 21 μg of 37-kDa protein antigen (pneumococcal fimbrial protein A) emulsified in Complete Freund's adjuvant (CFA). Ten control mice were immunized identically with CFA and buffer substituting for the antigen.
2. Fourteen days later, the mice were boosted intraperitoneally (IP) with 100 μg of the 37-kDa protein antigen (test mice) or with buffer (controls). No adjuvant was used with this booster immunization.
3. Eight days later, all mice were bled via the infraorbital sinus and the were collected and pooled into the two groups (immunized and controls). At the same time, blood was collected from individual mice to assay for antibody responses.
6. At the same time, the eighteen (8 test and 10 control) mice were challenged I.V with the same culture of WU2.
7. Deaths were tallied daily.

B1: 37-kDa protein: 37-kDa species-common S. pneumoniae protein, pneumococcal surface adhesin A (PsaA), used as immunogen (protein)
chain: CASGKKDTTSGQKLKVVATNSIIADITKNIAGDKIDLHSIVPIGQDPHEYEPLPEDVKKTSEADLIFYNGINLETGGNAWFTKLVENAKKTENKDYFAVSDGVDVIYLEGQNEKGKEDPHAWLNLENGIIFAKNIAKQLSAKDPNNKEFYEKNLKEYTDKLDKLDKESKDKFNKIPAEKKLIVTSEGAFKYFSKAYGVPSAYIWEINTEEEGTPEQIKTLVEKLRQTKVPSLFVESSVDDRPMKTVSQDTNIPIYAQIFTDSIAEQGKEGDSYYSMMKYNLDKIAEGLAK
With B1, in test [1], the “survived (mice surviving/total)” value is 10/10. Moreover, the “No. Dead/Total No. Challenged” value in test [2] is 0/8.
